# Values of other authors, collected in PMC11083953.
# Assays:
# [1] = target: CD38 (Homo sapiens) (UniProt P28907)
# [2] = target: CD20 (Homo sapiens) (UniProt P11836)
# Chain of CD20 (Homo sapiens) (P11836 whole entry): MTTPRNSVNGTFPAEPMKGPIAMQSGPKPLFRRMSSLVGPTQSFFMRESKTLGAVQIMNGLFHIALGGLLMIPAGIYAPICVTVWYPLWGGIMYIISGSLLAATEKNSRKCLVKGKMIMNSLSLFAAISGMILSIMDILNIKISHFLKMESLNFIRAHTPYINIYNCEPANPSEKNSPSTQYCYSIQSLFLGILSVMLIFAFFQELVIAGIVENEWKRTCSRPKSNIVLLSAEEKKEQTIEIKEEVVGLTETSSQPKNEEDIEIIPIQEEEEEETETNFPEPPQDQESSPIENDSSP
Kd [1] [nM],Substance,Kd [2] [nM]
4.36,daratumumab,–
–,rituximab,8
